Publication doi:10.1101/2023.05.08.539884
Read-outs that look alike come from different tables or passages of the source.

Tests used:
[1] = target: UBR4_(4730-5183) (human) (UniProt Q5T4S7); test: ITC
[2] = target: UBR4_(4730-5183) (human) (UniProt Q5T4S7); test: ITC; remark: listed apart in the source

Sequence of UBE2A (P49459 whole entry): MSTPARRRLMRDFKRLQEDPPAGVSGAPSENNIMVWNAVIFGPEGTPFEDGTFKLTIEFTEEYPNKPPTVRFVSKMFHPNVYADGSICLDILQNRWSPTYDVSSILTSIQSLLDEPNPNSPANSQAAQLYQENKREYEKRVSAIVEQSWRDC
Sequence of UBR4_(4730-5183) (human) (Q5T4S7 4730-5183): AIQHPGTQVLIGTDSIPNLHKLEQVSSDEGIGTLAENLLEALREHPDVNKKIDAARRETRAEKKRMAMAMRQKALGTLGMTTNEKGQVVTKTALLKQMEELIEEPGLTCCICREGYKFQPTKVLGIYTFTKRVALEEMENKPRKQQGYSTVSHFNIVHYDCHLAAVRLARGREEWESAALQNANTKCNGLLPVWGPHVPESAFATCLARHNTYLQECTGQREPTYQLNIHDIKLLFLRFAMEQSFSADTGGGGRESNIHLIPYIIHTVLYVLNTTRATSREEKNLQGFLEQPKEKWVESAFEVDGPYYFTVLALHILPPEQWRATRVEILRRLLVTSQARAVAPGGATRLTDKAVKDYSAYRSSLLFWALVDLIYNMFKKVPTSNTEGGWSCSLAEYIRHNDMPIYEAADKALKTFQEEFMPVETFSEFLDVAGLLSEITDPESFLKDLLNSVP

Work on “UBE2A (from UniProt P49459 1-152) (enzyme)” yielded a stoichiometry N [1] of 1, a dH [2] of -7.37 kcal/mol and a stoichiometry N [2] of 0.904.
